Laboratory results from patent US20160272683A1 (Novo Nordisk, published 2016).
Numbered stars: 1 amine (or outer) side, 2 acyl side, 3 side chain; on linkers, the order of the positions; unused ones are H or OH. Square brackets hold non-standard residues; d marks the D form. Side chains are listed from the residue outwards. * marks the point of attachment. C20 diacid = O=C(O)CCCCCCCCCCCCCCCCCCC(=O)*; C18 diacid = O=C(O)CCCCCCCCCCCCCCCCC(=O)*; γGlu = O=C(O)[C@H](CCC(=O)[*:2])N[*:1]

B1: [N-terminal(C20 diacid-gGlu), des1, 15E, 30S, 31G]mimylin (peptide)
peptide: {C20 diacid-γGlu}-ASELSTAALGRLSEELHELATLPRTETGSGSP-NH2
SMILES: CC(C)C[C@H](NC(=O)[C@H](C)NC(=O)[C@H](C)NC(=O)[C@@H](NC(=O)[C@H](CO)NC(=O)[C@H](CC(C)C)NC(=O)[C@H](CCC(=O)O)NC(=O)[C@H](CO)NC(=O)[C@H](C)NC(=O)CC[C@H](NC(=O)CCCCCCCCCCCCCCCCCCC(=O)O)C(=O)O)[C@@H](C)O)C(=O)NCC(=O)N[C@@H](CCCNC(=N)N)C(=O)N[C@@H](CC(C)C)C(=O)N[C@@H](CO)C(=O)N[C@@H](CCC(=O)O)C(=O)N[C@@H](CCC(=O)O)C(=O)N[C@@H](CC(C)C)C(=O)N[C@@H](Cc1c[nH]cn1)C(=O)N[C@@H](CCC(=O)O)C(=O)N[C@@H](CC(C)C)C(=O)N[C@@H](C)C(=O)N[C@H](C(=O)N[C@@H](CC(C)C)C(=O)N1CCC[C@H]1C(=O)N[C@@H](CCCNC(=N)N)C(=O)N[C@H](C(=O)N[C@@H](CCC(=O)O)C(=O)N[C@H](C(=O)NCC(=O)N[C@@H](CO)C(=O)NCC(=O)N[C@@H](CO)C(=O)N1CCC[C@H]1C(N)=O)[C@@H](C)O)[C@@H](C)O)[C@@H](C)O
B2: [N-terminal(C20 diacid-gGlu), des1, 15e, 30S, 31G]mimylin (peptide)
peptide: {C20 diacid-γGlu}-ASELSTAALGRLS[dE]ELHELATLPRTETGSGSP-NH2
SMILES: CC(C)C[C@H](NC(=O)[C@H](C)NC(=O)[C@H](C)NC(=O)[C@@H](NC(=O)[C@H](CO)NC(=O)[C@H](CC(C)C)NC(=O)[C@H](CCC(=O)O)NC(=O)[C@H](CO)NC(=O)[C@H](C)NC(=O)CC[C@H](NC(=O)CCCCCCCCCCCCCCCCCCC(=O)O)C(=O)O)[C@@H](C)O)C(=O)NCC(=O)N[C@@H](CCCNC(=N)N)C(=O)N[C@@H](CC(C)C)C(=O)N[C@@H](CO)C(=O)N[C@H](CCC(=O)O)C(=O)N[C@@H](CCC(=O)O)C(=O)N[C@@H](CC(C)C)C(=O)N[C@@H](Cc1c[nH]cn1)C(=O)N[C@@H](CCC(=O)O)C(=O)N[C@@H](CC(C)C)C(=O)N[C@@H](C)C(=O)N[C@H](C(=O)N[C@@H](CC(C)C)C(=O)N1CCC[C@H]1C(=O)N[C@@H](CCCNC(=N)N)C(=O)N[C@H](C(=O)N[C@@H](CCC(=O)O)C(=O)N[C@H](C(=O)NCC(=O)N[C@@H](CO)C(=O)NCC(=O)N[C@@H](CO)C(=O)N1CCC[C@H]1C(N)=O)[C@@H](C)O)[C@@H](C)O)[C@@H](C)O
B3: [N-terminal(C20 diacid-gGlu), des1, 25H, 30S, 31G]mimylin (peptide)
peptide: {C20 diacid-γGlu}-ASELSTAALGRLSAELHELATLPHTETGSGSP-NH2
SMILES: CC(C)C[C@H](NC(=O)[C@H](C)NC(=O)[C@H](C)NC(=O)[C@@H](NC(=O)[C@H](CO)NC(=O)[C@H](CC(C)C)NC(=O)[C@H](CCC(=O)O)NC(=O)[C@H](CO)NC(=O)[C@H](C)NC(=O)CC[C@H](NC(=O)CCCCCCCCCCCCCCCCCCC(=O)O)C(=O)O)[C@@H](C)O)C(=O)NCC(=O)N[C@@H](CCCNC(=N)N)C(=O)N[C@@H](CC(C)C)C(=O)N[C@@H](CO)C(=O)N[C@@H](C)C(=O)N[C@@H](CCC(=O)O)C(=O)N[C@@H](CC(C)C)C(=O)N[C@@H](Cc1c[nH]cn1)C(=O)N[C@@H](CCC(=O)O)C(=O)N[C@@H](CC(C)C)C(=O)N[C@@H](C)C(=O)N[C@H](C(=O)N[C@@H](CC(C)C)C(=O)N1CCC[C@H]1C(=O)N[C@@H](Cc1c[nH]cn1)C(=O)N[C@H](C(=O)N[C@@H](CCC(=O)O)C(=O)N[C@H](C(=O)NCC(=O)N[C@@H](CO)C(=O)NCC(=O)N[C@@H](CO)C(=O)N1CCC[C@H]1C(N)=O)[C@@H](C)O)[C@@H](C)O)[C@@H](C)O
B4: [N-terminal(C20 diacid-gGlu), des1, 30T, 31G, 32T]mimylin (peptide)
peptide: {C20 diacid-γGlu}-ASELSTAALGRLSAELHELATLPRTETGTGTP-NH2
SMILES: CC(C)C[C@H](NC(=O)[C@H](C)NC(=O)[C@H](C)NC(=O)[C@@H](NC(=O)[C@H](CO)NC(=O)[C@H](CC(C)C)NC(=O)[C@H](CCC(=O)O)NC(=O)[C@H](CO)NC(=O)[C@H](C)NC(=O)CC[C@H](NC(=O)CCCCCCCCCCCCCCCCCCC(=O)O)C(=O)O)[C@@H](C)O)C(=O)NCC(=O)N[C@@H](CCCNC(=N)N)C(=O)N[C@@H](CC(C)C)C(=O)N[C@@H](CO)C(=O)N[C@@H](C)C(=O)N[C@@H](CCC(=O)O)C(=O)N[C@@H](CC(C)C)C(=O)N[C@@H](Cc1c[nH]cn1)C(=O)N[C@@H](CCC(=O)O)C(=O)N[C@@H](CC(C)C)C(=O)N[C@@H](C)C(=O)N[C@H](C(=O)N[C@@H](CC(C)C)C(=O)N1CCC[C@H]1C(=O)N[C@@H](CCCNC(=N)N)C(=O)N[C@H](C(=O)N[C@@H](CCC(=O)O)C(=O)N[C@H](C(=O)NCC(=O)N[C@H](C(=O)NCC(=O)N[C@H](C(=O)N1CCC[C@H]1C(N)=O)[C@@H](C)O)[C@@H](C)O)[C@@H](C)O)[C@@H](C)O)[C@@H](C)O
B5: [N-terminal(C18 diacid-gGlu), des1, 30S, 31G, 32P]mimylin (peptide)
peptide: {C18 diacid-γGlu}-ASELSTAALGRLSAELHELATLPRTETGSGPP-NH2
SMILES: CC(C)C[C@H](NC(=O)[C@H](C)NC(=O)[C@H](C)NC(=O)[C@@H](NC(=O)[C@H](CO)NC(=O)[C@H](CC(C)C)NC(=O)[C@H](CCC(=O)O)NC(=O)[C@H](CO)NC(=O)[C@H](C)NC(=O)CC[C@H](NC(=O)CCCCCCCCCCCCCCCCC(=O)O)C(=O)O)[C@@H](C)O)C(=O)NCC(=O)N[C@@H](CCCNC(=N)N)C(=O)N[C@@H](CC(C)C)C(=O)N[C@@H](CO)C(=O)N[C@@H](C)C(=O)N[C@@H](CCC(=O)O)C(=O)N[C@@H](CC(C)C)C(=O)N[C@@H](Cc1c[nH]cn1)C(=O)N[C@@H](CCC(=O)O)C(=O)N[C@@H](CC(C)C)C(=O)N[C@@H](C)C(=O)N[C@H](C(=O)N[C@@H](CC(C)C)C(=O)N1CCC[C@H]1C(=O)N[C@@H](CCCNC(=N)N)C(=O)N[C@H](C(=O)N[C@@H](CCC(=O)O)C(=O)N[C@H](C(=O)NCC(=O)N[C@@H](CO)C(=O)NCC(=O)N1CCC[C@H]1C(=O)N1CCC[C@H]1C(N)=O)[C@@H](C)O)[C@@H](C)O)[C@@H](C)O

The binders below were run against T1, human calcitonin receptor on BHK570/CRE-luc cells (human, UniProt P30988 25-474) (assay: cell-based or functional assay).
T1 sequence (looked up): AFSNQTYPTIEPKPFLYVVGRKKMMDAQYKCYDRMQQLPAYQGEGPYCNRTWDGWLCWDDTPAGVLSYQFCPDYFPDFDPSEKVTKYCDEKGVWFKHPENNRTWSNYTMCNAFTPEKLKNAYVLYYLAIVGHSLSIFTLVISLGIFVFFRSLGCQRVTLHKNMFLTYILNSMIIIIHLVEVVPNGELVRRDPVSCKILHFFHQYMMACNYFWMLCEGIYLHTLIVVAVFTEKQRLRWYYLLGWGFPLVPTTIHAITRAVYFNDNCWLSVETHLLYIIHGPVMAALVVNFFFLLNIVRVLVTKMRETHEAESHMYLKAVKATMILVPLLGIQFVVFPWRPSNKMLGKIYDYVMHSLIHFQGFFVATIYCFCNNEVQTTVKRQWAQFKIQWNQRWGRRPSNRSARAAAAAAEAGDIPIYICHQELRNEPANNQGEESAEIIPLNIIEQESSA

Row | Binder | hCTR funct. EC50 (pM), tested with HSA
1 | B1 | 40 pM
2 | B2 | 23 pM
3 | Ac-ASK([γGlu-C20 diacid])LSTAALGRLSAELHELATLPRTETGSGSP-NH2 [[N-terminal(acetyl), des1, 4K(C20 diacid-gGlu), 30S, 31G]mimylin] | 37 pM
4 | Ac-ASELSTAALGRLSAK([γGlu-C20 diacid])LHELATLPRTETGSGSP-NH2 [[N-terminal(acetyl), des1, 16K(C20 diacid-gGlu), 30S, 31G]mimylin] | 44 pM
5 | Ac-ASELSTAALGRLSAELHK([γGlu-C20 diacid])LATLPRTETGSGSP-NH2 [[N-terminal(acetyl), des1, 19K(C20 diacid-gGlu), 30S, 31G]mimylin] | 22 pM
6 | {C20 diacid-γGlu}-ASELSTAALGHLSAELHELATLPRTETGSGSP-NH2 [[N-terminal(C20 diacid-gGlu), des1, 12H, 30S, 31G]mimylin] | 48 pM
7 | B3 | 22 pM
8 | B4 | 56 pM
9 | B5 | 95 pM

The binders below were run against T2, human amylin 3(a) receptor (human calcitonin receptor co-expressed with RAMP-3) on BHK570/CRE-luc cells (human, UniProt P30988 25-474; O60896 24-148) (assay: cell-based or functional assay).
T2 sequence (looked up) 1: T1 sequence (looked up)
T2 sequence (looked up) 2: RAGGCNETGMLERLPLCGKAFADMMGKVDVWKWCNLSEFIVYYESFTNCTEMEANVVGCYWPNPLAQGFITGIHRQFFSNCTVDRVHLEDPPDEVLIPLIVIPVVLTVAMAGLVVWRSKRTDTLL

Row | Binder | hAmylin-R funct. EC50 (pM), tested with HSA
10 | B1 | 85 pM
11 | B2 | 94 pM
12 | Ac-ASK([γGlu-C20 diacid])LSTAALGRLSAELHELATLPRTETGSGSP-NH2 [[N-terminal(acetyl), des1, 4K(C20 diacid-gGlu), 30S, 31G]mimylin] | 72 pM
13 | Ac-ASELSTAALGRLSAK([γGlu-C20 diacid])LHELATLPRTETGSGSP-NH2 [[N-terminal(acetyl), des1, 16K(C20 diacid-gGlu), 30S, 31G]mimylin] | 100 pM
14 | Ac-ASELSTAALGRLSAELHK([γGlu-C20 diacid])LATLPRTETGSGSP-NH2 [[N-terminal(acetyl), des1, 19K(C20 diacid-gGlu), 30S, 31G]mimylin] | 47 pM
15 | {C20 diacid-γGlu}-ASELSTAALGHLSAELHELATLPRTETGSGSP-NH2 [[N-terminal(C20 diacid-gGlu), des1, 12H, 30S, 31G]mimylin] | 230 pM
16 | B3 | 185 pM
17 | B4 | 134 pM
18 | B5 | 413 pM
